Consider 17 molecules from patent EP4792821A2 (Beijing Youcare Kechuang Pharmaceutical Technology Co., Ltd., dated 2026).

Where no end group is shown, it is not given here. The star is where a group is joined. Succinyl(4-O-cholesteryl) = CC(C)CCC[C@@H](C)[C@H]1CC[C@H]2[C@@H]3CC=C4C[C@@H](OC(=O)CCC(=O)*)CC[C@]4(C)[C@H]3CC[C@]12C

First the molecules themselves.
B1: Compound 35 (peptide)
peptide: Ac-SISQVNEKINEIQSLEEKSDKLLKSEAAAKK(Succinyl(4-O-cholesteryl))-NH2
SMILES: CC[C@H](C)[C@H](NC(=O)[C@H](CO)NC(C)=O)C(=O)N[C@@H](CO)C(=O)N[C@@H](CCC(N)=O)C(=O)N[C@H](C(=O)N[C@@H](CC(N)=O)C(=O)N[C@@H](CCC(=O)O)C(=O)N[C@@H](CCCCN)C(=O)N[C@H](C(=O)N[C@@H](CC(N)=O)C(=O)N[C@@H](CCC(=O)O)C(=O)N[C@H](C(=O)N[C@@H](CCC(N)=O)C(=O)N[C@@H](CO)C(=O)N[C@@H](CC(C)C)C(=O)N[C@@H](CCC(=O)O)C(=O)N[C@@H](CCC(=O)O)C(=O)N[C@@H](CCCCN)C(=O)N[C@@H](CO)C(=O)N[C@@H](CC(=O)O)C(=O)N[C@@H](CCCCN)C(=O)N[C@@H](CC(C)C)C(=O)N[C@@H](CC(C)C)C(=O)N[C@@H](CCCCN)C(=O)N[C@@H](CO)C(=O)N[C@@H](CCC(=O)O)C(=O)N[C@@H](C)C(=O)N[C@@H](C)C(=O)N[C@@H](C)C(=O)N[C@@H](CCCCN)C(=O)N[C@@H](CCCCNC(=O)CCC(=O)O[C@H]1CC[C@@]2(C)C(=CC[C@H]3[C@@H]4CC[C@H]([C@H](C)CCCC(C)C)[C@@]4(C)CC[C@@H]32)C1)C(N)=O)[C@@H](C)CC)[C@@H](C)CC)C(C)C
B2: Compound 47 (peptide)
peptide: Ac-SLEQVNKINKKIDKIEESLKKIEESDKKSLEVNKKLEAAAKK-NH2
B3: Compound 49 (peptide)
peptide: Ac-SLEQVNKKIEQSLESLKKSDKINQSLEEVNKSDELLEAAAKK-NH2
B4: Compound 36 (peptide)
peptide: Ac-VNKKIEEEKQSLKKQSDKIEESDENEAAAKK(Succinyl(4-O-cholesteryl))-NH2
SMILES: CC[C@H](C)[C@H](NC(=O)[C@H](CCCCN)NC(=O)[C@H](CC(=O)O)NC(=O)[C@H](CO)NC(=O)[C@H](CCC(N)=O)NC(=O)[C@H](CCCCN)NC(=O)[C@H](CCCCN)NC(=O)[C@H](CC(C)C)NC(=O)[C@H](CO)NC(=O)[C@H](CCC(N)=O)NC(=O)[C@H](CCCCN)NC(=O)[C@H](CCC(=O)O)NC(=O)[C@H](CCC(=O)O)NC(=O)[C@H](CCC(=O)O)NC(=O)[C@@H](NC(=O)[C@H](CCCCN)NC(=O)[C@H](CCCCN)NC(=O)[C@H](CC(N)=O)NC(=O)[C@@H](NC(C)=O)C(C)C)[C@@H](C)CC)C(=O)N[C@@H](CCC(=O)O)C(=O)N[C@@H](CCC(=O)O)C(=O)N[C@@H](CO)C(=O)N[C@@H](CC(=O)O)C(=O)N[C@@H](CCC(=O)O)C(=O)N[C@@H](CC(N)=O)C(=O)N[C@@H](CCC(=O)O)C(=O)N[C@@H](C)C(=O)N[C@@H](C)C(=O)N[C@@H](C)C(=O)N[C@@H](CCCCN)C(=O)N[C@@H](CCCCNC(=O)CCC(=O)O[C@H]1CC[C@@]2(C)C(=CC[C@H]3[C@@H]4CC[C@H]([C@H](C)CCCC(C)C)[C@@]4(C)CC[C@@H]32)C1)C(N)=O
B5: Compound 4 (peptide)
peptide: Ac-FDASLLKIEEEKKKIEELLKLHNESDKKLEEV-NH2
B6: Positive polypeptide 4 (peptide)
peptide: IEQVNKKIEQSLKFIEKSDKLLENVNKGKCEAAAKK
modifications: not fully specified; also: modifications not known
B7: Positive polypeptide 5 (peptide)
peptide: LEQVNKKIEQSLKFIEKSDKLLENVNKGKCEAAAKK
modifications: not fully specified; also: modifications not known
B8: Positive polypeptide 3 (peptide)
peptide: IEEVNKKIEESLKKIEESDKKLEEVNKKKEAAAKK
modifications: not fully specified; also: modifications not known
B9: Positive polypeptide 1 (peptide)
peptide: SLEQVNKKIEQSLKFIEKSDKLLENGSGSGK
modifications: not fully specified; also: modifications not known
B10: Compound 39 (peptide)
peptide: Ac-WDEFDASISQNEKINQSLEEIRKSDELLHNNALEAAAKK(Succinyl(4-O-cholesteryl))-NH2
SMILES: CC[C@H](C)[C@H](NC(=O)[C@H](CO)NC(=O)[C@H](C)NC(=O)[C@H](CC(=O)O)NC(=O)[C@H](Cc1ccccc1)NC(=O)[C@H](CCC(=O)O)NC(=O)[C@H](CC(=O)O)NC(=O)[C@H](Cc1c[nH]c2ccccc12)NC(C)=O)C(=O)N[C@@H](CO)C(=O)N[C@@H](CCC(N)=O)C(=O)N[C@@H](CC(N)=O)C(=O)N[C@@H](CCC(=O)O)C(=O)N[C@@H](CCCCN)C(=O)N[C@H](C(=O)N[C@@H](CC(N)=O)C(=O)N[C@@H](CCC(N)=O)C(=O)N[C@@H](CO)C(=O)N[C@@H](CC(C)C)C(=O)N[C@@H](CCC(=O)O)C(=O)N[C@@H](CCC(=O)O)C(=O)N[C@H](C(=O)N[C@@H](CCCNC(=N)N)C(=O)N[C@@H](CCCCN)C(=O)N[C@@H](CO)C(=O)N[C@@H](CC(=O)O)C(=O)N[C@@H](CCC(=O)O)C(=O)N[C@@H](CC(C)C)C(=O)N[C@@H](CC(C)C)C(=O)N[C@@H](Cc1c[nH]cn1)C(=O)N[C@@H](CC(N)=O)C(=O)N[C@@H](CC(N)=O)C(=O)N[C@@H](C)C(=O)N[C@@H](CC(C)C)C(=O)N[C@@H](CCC(=O)O)C(=O)N[C@@H](C)C(=O)N[C@@H](C)C(=O)N[C@@H](C)C(=O)N[C@@H](CCCCN)C(=O)N[C@@H](CCCCNC(=O)CCC(=O)O[C@H]1CC[C@@]2(C)C(=CC[C@H]3[C@@H]4CC[C@H]([C@H](C)CCCC(C)C)[C@@]4(C)CC[C@@H]32)C1)C(N)=O)[C@@H](C)CC)[C@@H](C)CC
B11: Positive polypeptide 6 (peptide)
peptide: VFPSDEFDASISQVNEKINQSLAAIRKSDELLHNV
modifications: not fully specified; also: modifications not known
B12: Positive polypeptide 2 (peptide)
peptide: Ac-IEQVNKKIEQSLKFIEKSDKLLENVNKGK-NH2
B13: Compound 5 (peptide)
peptide: Ac-WDEFDKKIEEVNKKIEESLKKIEESDKKLEEVNKKL-NH2
B14: Compound 48 (peptide)
peptide: Ac-SLEQVNKINEKINKISQSLKKIEESDKKSDEVNAGLEAAAKK-NH2
B15: Compound 46 (peptide)
peptide: Ac-FEVNRRRIEQSLEKSLESLEEEEHSDKKLHNELH-NH2
B16: Compound 34 (peptide)
peptide: Ac-FDEEVNKKIEQSLKINQSLEEIRKSEAAAKK(Succinyl(4-O-cholesteryl))-NH2
SMILES: CC[C@H](C)[C@H](NC(=O)[C@H](CCC(=O)O)NC(=O)[C@H](CCC(=O)O)NC(=O)[C@H](CC(C)C)NC(=O)[C@H](CO)NC(=O)[C@H](CCC(N)=O)NC(=O)[C@H](CC(N)=O)NC(=O)[C@@H](NC(=O)[C@H](CCCCN)NC(=O)[C@H](CC(C)C)NC(=O)[C@H](CO)NC(=O)[C@H](CCC(N)=O)NC(=O)[C@H](CCC(=O)O)NC(=O)[C@@H](NC(=O)[C@H](CCCCN)NC(=O)[C@H](CCCCN)NC(=O)[C@H](CC(N)=O)NC(=O)[C@@H](NC(=O)[C@H](CCC(=O)O)NC(=O)[C@H](CCC(=O)O)NC(=O)[C@H](CC(=O)O)NC(=O)[C@H](Cc1ccccc1)NC(C)=O)C(C)C)[C@@H](C)CC)[C@@H](C)CC)C(=O)N[C@@H](CCCNC(=N)N)C(=O)N[C@@H](CCCCN)C(=O)N[C@@H](CO)C(=O)N[C@@H](CCC(=O)O)C(=O)N[C@@H](C)C(=O)N[C@@H](C)C(=O)N[C@@H](C)C(=O)N[C@@H](CCCCN)C(=O)N[C@@H](CCCCNC(=O)CCC(=O)O[C@H]1CC[C@@]2(C)C(=CC[C@H]3[C@@H]4CC[C@H]([C@H](C)CCCC(C)C)[C@@]4(C)CC[C@@H]32)C1)C(N)=O
B17: Compound 37 (peptide)
peptide: Ac-FDELVNKKIEKIEEVNKKSLKLLESEAAAKK(Succinyl(4-O-cholesteryl))-NH2
SMILES: CC[C@H](C)[C@H](NC(=O)[C@H](CCCCN)NC(=O)[C@H](CCCCN)NC(=O)[C@H](CC(N)=O)NC(=O)[C@@H](NC(=O)[C@H](CC(C)C)NC(=O)[C@H](CCC(=O)O)NC(=O)[C@H](CC(=O)O)NC(=O)[C@H](Cc1ccccc1)NC(C)=O)C(C)C)C(=O)N[C@@H](CCC(=O)O)C(=O)N[C@@H](CCCCN)C(=O)N[C@H](C(=O)N[C@@H](CCC(=O)O)C(=O)N[C@@H](CCC(=O)O)C(=O)N[C@H](C(=O)N[C@@H](CC(N)=O)C(=O)N[C@@H](CCCCN)C(=O)N[C@@H](CCCCN)C(=O)N[C@@H](CO)C(=O)N[C@@H](CC(C)C)C(=O)N[C@@H](CCCCN)C(=O)N[C@@H](CC(C)C)C(=O)N[C@@H](CC(C)C)C(=O)N[C@@H](CCC(=O)O)C(=O)N[C@@H](CO)C(=O)N[C@@H](CCC(=O)O)C(=O)N[C@@H](C)C(=O)N[C@@H](C)C(=O)N[C@@H](C)C(=O)N[C@@H](CCCCN)C(=O)N[C@@H](CCCCNC(=O)CCC(=O)O[C@H]1CC[C@@]2(C)C(=CC[C@H]3[C@@H]4CC[C@H]([C@H](C)CCCC(C)C)[C@@]4(C)CC[C@@H]32)C1)C(N)=O)C(C)C)[C@@H](C)CC

In the experiment the target is F protein of RSV A long virus strain (Respiratory Syncytial Virus (RSV) A …, UniProt P12568 26-574). The experiment in a line: cell-based or functional assay.
Sequence of F protein of RSV A long virus strain (P12568 26-574): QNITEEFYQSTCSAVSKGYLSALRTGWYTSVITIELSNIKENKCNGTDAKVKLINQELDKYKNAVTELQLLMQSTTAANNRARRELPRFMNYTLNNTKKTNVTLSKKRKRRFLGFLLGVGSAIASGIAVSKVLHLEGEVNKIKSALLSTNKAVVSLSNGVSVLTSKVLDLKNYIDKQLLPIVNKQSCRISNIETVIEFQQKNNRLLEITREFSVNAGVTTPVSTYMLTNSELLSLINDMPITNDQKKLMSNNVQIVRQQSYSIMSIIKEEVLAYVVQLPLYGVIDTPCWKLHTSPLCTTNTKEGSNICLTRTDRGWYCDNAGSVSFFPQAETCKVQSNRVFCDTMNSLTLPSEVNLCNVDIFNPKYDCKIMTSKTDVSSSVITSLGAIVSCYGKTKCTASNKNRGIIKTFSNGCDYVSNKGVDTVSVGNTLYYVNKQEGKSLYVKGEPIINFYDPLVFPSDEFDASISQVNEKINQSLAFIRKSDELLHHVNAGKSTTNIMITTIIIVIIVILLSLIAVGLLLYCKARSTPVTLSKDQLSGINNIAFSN
Regarding B1, the “IC50/nM, plaque reduction, RSV A long on HEp-2 cells (Table 2, Cell fusion inhibition activity)” value is 5530 nM.

In the case of B2, the “IC50/nM, plaque reduction, RSV A long on HEp-2 cells (Table 2, Cell fusion inhibition activity)” value is above 8000 nM.

As for B3, the “IC50/nM, plaque reduction, RSV A long on HEp-2 cells (Table 2, Cell fusion inhibition activity)” value is above 8000 nM.

On to B4, for which the “IC50/nM, plaque reduction, RSV A long on HEp-2 cells (Table 2, Cell fusion inhibition activity)” value amounted to 6820 nM.

Take B5: the “IC50/nM, plaque reduction, RSV A long on HEp-2 cells (Table 2, Cell fusion inhibition activity)” value was above 8000 nM.

On to B6, for which the “IC50/nM, plaque reduction, RSV A long on HEp-2 cells (Table 2, Cell fusion inhibition activity)” value was determined as 190 nM.

For B7, the “IC50/nM, plaque reduction, RSV A long on HEp-2 cells (Table 2, Cell fusion inhibition activity)” value is above 300 nM.

B8: the “IC50/nM, plaque reduction, RSV A long on HEp-2 cells (Table 2, Cell fusion inhibition activity)” value was above 300 nM.

Take B9: the “IC50/nM, plaque reduction, RSV A long on HEp-2 cells (Table 2, Cell fusion inhibition activity)” value was determined as 150 nM.

Consider B10, for which the “IC50/nM, plaque reduction, RSV A long on HEp-2 cells (Table 2, Cell fusion inhibition activity)” value is 113 nM.

On to B11, for which the “IC50/nM, plaque reduction, RSV A long on HEp-2 cells (Table 2, Cell fusion inhibition activity)” value is above 300 nM.

On to B12, for which the “IC50/nM, plaque reduction, RSV A long on HEp-2 cells (Table 2, Cell fusion inhibition activity)” value was above 300 nM.

Regarding B13, the “IC50/nM, plaque reduction, RSV A long on HEp-2 cells (Table 2, Cell fusion inhibition activity)” value worked out at 1120 nM.

With B14, the “IC50/nM, plaque reduction, RSV A long on HEp-2 cells (Table 2, Cell fusion inhibition activity)” value is above 8000 nM.

Regarding B15, the “IC50/nM, plaque reduction, RSV A long on HEp-2 cells (Table 2, Cell fusion inhibition activity)” value is above 8000 nM.

In the case of B16, the “IC50/nM, plaque reduction, RSV A long on HEp-2 cells (Table 2, Cell fusion inhibition activity)” value is above 2000 nM.

As for B17, the “IC50/nM, plaque reduction, RSV A long on HEp-2 cells (Table 2, Cell fusion inhibition activity)” value came out at 5230 nM.
